Numbering of substitutions follows the chain as printed.
B1: mAb 109 (antibody, V domains shown)
VH: QVQLVESGGGVVQPGRSLRLSCVASGFPFRSYGMHWVRQAPGKGLEWVAFIWYDGSNKYYADSVRGRFTISRDNFKKMVYLQMNSLRAEDTAVYYCARDLAGIYAFDVWGQGTVVTVSS
VL: EIVMTQSPATLSVSPGERATLSCRASQSVSSNLAWYQQKPGQAPRLLIYGASTRATGIPARFSGSGSGTEFTLTVSSLQSEDFAIYYCQQYNNWRPLTFGGGTKVEIK
B2: mAb 46 (antibody, V domains shown)
VH: EGQLVESGGGLVQPGGSLRLSCVASGFTLSSYTLNWVRQAPGKGLEWVSYISSTSRTIYYSDSVKGRFTISRDNAKNSLYLQMNSLRDEDTALYYCAREDYYDSSGFDYWGQGTLVTVSS
VL: AIRMTQSPSSFSASTGDRVTITCRASQGISSYLAWYQQKPGKAPKLLIYTASTLQSGVPSRFSGSGSGTDFTLTIRSLQSEDFATYYCQQYYSYPRTFGQGTKVEIK
B3: mAb 49 (antibody, V domains shown)
VH: B2 VH with G2V, Q13P, S30R, L34M, K43Q, V48I, M83V, Y109C
VL: B2 VL with S30F, S31N, T50S, A51T, S77G, F83L, Y94F, E105D
B4: mAb 51 (antibody, V domains shown)
VH: B2 VH with G2V, V23A, L34M, T54S, T69S, Y109N
VL: B2 VL
B5: mAb 65 (antibody, V domains shown)
VH: QVQLVESGGGVVQPGRSLRLSCAASGFTFSGYGMHWVRQAPGKGLDWVAIIYYNGNNKYYADSVKGRFTISRDNSKNTLYLQMNSLRAEDTAVYYCARGGGYNWFDPWGQGTLVIVSS
VL: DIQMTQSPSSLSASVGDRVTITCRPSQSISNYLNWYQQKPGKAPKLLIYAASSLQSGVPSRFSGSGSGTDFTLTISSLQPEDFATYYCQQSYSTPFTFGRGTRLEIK
B6: mAb 81 (antibody, V domains shown)
VH: B5 VH with V5A, N54D, N56K, I115T
VL: DIQMTQSPSSLSASVGDRVTITCRPSQTISNYLNWYQQDPGKAPKLLIYAASSLQSGVPSRFSGSGSGTDFTLTISSLQPEDFATYYCQQSYSTPITFGRGTRLEIK
B7: mAb 83 (antibody, V domains shown)
VH: B5 VH
VL: B6 VL with T28I, S30I, D39K, I96F
B8: mAb 90 (antibody, V domains shown)
VH: EVQLVESGGGLVQPGGSLKLSCAASGFTFSGSAMHWVRQASGKGLEWVGRIRTKPNSYATSYAASVKDRFTISRDDSKNTAYLQMNSLKTEDTAVYYCIRGELEPWGQGTLVTVSS
VL: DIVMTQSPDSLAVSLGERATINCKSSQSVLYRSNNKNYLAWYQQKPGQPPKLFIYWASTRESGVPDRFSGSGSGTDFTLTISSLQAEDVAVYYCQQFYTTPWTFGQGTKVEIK
B9: mAb 54 (antibody, V domains shown)
VH: EVQLEESGGGLVQPGGSLRLSCAASGFTFSRYSMNWVRQAPGKGLEWFSYISSSSRTIYYADSVKGRFTMSRDNAKNSLYLQMNSLRDEDTAVYFCARGDYYDSEGMDVWGKGTTVTVSS
VL: DIQMTQSPSTLSASVGDRVTITCRASQTITTWLAWYQQKPGKAPKLLIYKASTLESGVPSRFSGSGSGTEFTLTISSLQPDDFATYHCQQYKTFSYTFGQGTKLDIK
B10: mAb 152 (antibody, V domains shown)
VH: QVQLVQSGAEVKKPGASVKVSCKASGYTFTAYHTHWVRQAPGQGLEWMGWIYPKSGRTTYTQKFQGRVTMTRDTSISTVYMELSRLKSDDTAVYYCARVGALLFDYWGQGTLVTVSS
VL: not shown
B11: mAb 42 (antibody, V domains shown)
VH: QAQLVQSGSELKKPGASVKVSCKASGYTFTKHSMNWVRQAPGQGLEWMGWINTNTGNPTYAQGFTGRFVFSLDTSVTTAYLQISSLKAEDTAVYYCAREGDYDFWSGFFNFDYWGQGTLVTVSS
VL: DIQMTQSPSSLSASVGDRVTITCRASQGIRNDLGWYQQKPGKAPKRLIYAASSLQSGVPSRFSGSGSGAEFTLTISSLQPEDFATYYCLQHNSYPRTFGQGTKVEIK
B12: mAb 53 (antibody, V domains shown)
VH: QVQLVQSGAEVKKPGASVKVSCKASGYTFTSYDINWVRQATGQGLEWMGWMNPKSGKTGYAQKFQGRITMTRNTPISTVYMDLSSLRSEDTAVYYCAREGHYDFWTGYYSFDYWGQGTLVTVSS
VL: B11 VL with K39T, A69T, N92Y, R96Y, V104L
B13: mAb 55 (antibody, V domains shown)
VH: QVQLEQSGAEVKKPGASVKVSCKTSGYIFANYDINWVRQATGQGLEWMGWMNPKSGKAGYAQKFQGRVTMTSNTPINTAYMELSSLRSEDTAVYYCAREGHYDFWRGFYSFDYWGQGILVTVSS
VL: B11 VL with A50T, A69T, Y87F, H91Y, S93T, R96Y, V104L
B14: mAb 52 (antibody, V domains shown)
VH: QVQLVQSGAEVKKPGASVKVSCKASGYTFTSHDINWVRQATGQGLEWMGWLNPNSGKTGYAQKFQGRVTMARDTSMYTADMELSSLRFEDTAVYYCARVGHYDMWPGFFSFDYWGQGTLVTVSS
VL: B11 VL with V19I, T20I, G28D, G66R, A69T, Q79H, N92R, R96Y, K103N, V104L
B15: mAb 272 (antibody, V domains shown)
VH: EIQLVESGGGLVQPGESLKLSCAGSGFTFSVSAMHWVRQASGKGLEWVGRIRNKANSYATAYAASVKGRFTLSRDDSKNTAYLQMNSLKTEDTAVYYCSSYYYLSGTYYNYWGQGTLVTVSS
VL: B11 VL with G28V, Y49H, A50S, S56G, A69T, L89Q, S93V, Y94N, R96C, V104L
notes: VH/VL only
B16: mAb 271 (antibody, V domains shown)
VH: B15 VH with N86D
VL: B11 VL with G28V, Y49H, A50S, S56G, A69T, L89Q, S93V, Y94N, R96C, V104L
notes: VH/VL only
B17: mAb 47 (antibody, V domains shown)
VH: B11 VH
VL: B11 VL with A69T
B18: mAb 44 (antibody, V domains shown)
VH: B11 VH with K31R, S33A, T77S, Q82K, A97V
VL: B11 VL with Y36F, K45T
B19: mAb 50 (antibody, V domains shown)
VH: B11 VH with K31R, S33A
VL: B11 VL with Y36F, K45T
B20: mAb 270 (antibody, V domains shown)
VH: B15 VH with A63D, K78R
VL: B11 VL with G28V, Y49H, A50S, S56G, A69T, L89Q, S93V, Y94N, R96C, V104L
notes: VH/VL only
B21: mAb 245 (antibody, V domains shown)
VH: QVKLVESGGGVVQPGRSLRLSCVASGFTFSGYGMHWVRQAPGKGLEWVAIIYYDGKNKYYVDSVKGRFTISRDNSKNTLYLQLNSLRAEDTAVYYCVRGPGYNWFDLWGQGTLVTVAS
VL: EIVLTQSPDFQSVTPKEKVTITCRASQSIGSSLHWYQQKPDQSPKLLIKYASQSFSGVPSRFSGSGSGTDFTLTINSLEAEDAATYYCHQSSSLPYTFGQGTKLEIK
notes: VH/VL only

Experiments:
[1] = target: T1, cynomolgus monkey CD3 expressed on primary T cells (cynomolgus monkey, UniProt Q95LI5 22-198; Q95LI8 22-171; Q95LI7 23-181); test: flow cytometry, 25 nM, cyno primary T cells
T1 construct: whole, on cells; CD3 complex on purified cynomolgus monkey T cells; also called cyno CD3
Description: (§1) Purified antibodies were confirmed to bind CD3 expressed on cells using the CytoFLEX S or LX flow cytometers (Beckman Coulter). Antibodies were diluted to 25 nM in FACS buffer (PBS+2% FBS) and were incubated with CD3-expressing cells for 30 minutes at 4° C. […] The median fluorescence intensity of the binding signal for each antibody was normalized to the isotype control to obtain a fold over isotype value. An antibody with a fold over isotype (FOI) of ≥10 was considered to be positive for binding.

[2] = target: T2, human CD3 expressed on cells (human, UniProt P07766 23-207; P04234 22-171; P09693 23-182); test: flow cytometry, 25 nM
T2 construct: whole, on cells; CD3 complex on Jurkat cells and on human primary T cells
Description: as §1

[3] = target: T3, cynomolgus monkey CD3 expressed on cyno primary T cells (cynomolgus monkey, UniProt Q95LI5 22-198; Q95LI8 22-171; Q95LI7 23-181); test: flow cytometry, cyno primary T cells
T3 construct: whole, on cells; CD3 complex on purified cynomolgus monkey CD3 pan T cells; also called cyno CD3
Description: as §1

T2 sequence (P07766 23-207, chain 1 of 3): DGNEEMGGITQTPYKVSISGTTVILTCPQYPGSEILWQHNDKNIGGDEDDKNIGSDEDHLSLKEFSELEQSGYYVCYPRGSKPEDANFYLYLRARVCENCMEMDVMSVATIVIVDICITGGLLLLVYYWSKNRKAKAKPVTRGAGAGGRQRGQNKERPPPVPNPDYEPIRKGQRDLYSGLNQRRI
T2 sequence (P04234 22-171, chain 2 of 3): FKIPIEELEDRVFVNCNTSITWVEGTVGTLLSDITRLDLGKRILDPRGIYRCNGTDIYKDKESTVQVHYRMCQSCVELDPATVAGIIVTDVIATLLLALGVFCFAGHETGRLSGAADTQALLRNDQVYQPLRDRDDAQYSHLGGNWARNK
T2 sequence (P09693 23-182, chain 3 of 3): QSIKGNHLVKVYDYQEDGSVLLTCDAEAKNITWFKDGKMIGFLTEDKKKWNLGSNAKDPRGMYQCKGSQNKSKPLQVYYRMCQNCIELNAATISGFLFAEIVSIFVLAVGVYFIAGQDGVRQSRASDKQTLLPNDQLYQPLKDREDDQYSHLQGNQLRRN
T3 sequence (Q95LI5 22-198, chain 1 of 3): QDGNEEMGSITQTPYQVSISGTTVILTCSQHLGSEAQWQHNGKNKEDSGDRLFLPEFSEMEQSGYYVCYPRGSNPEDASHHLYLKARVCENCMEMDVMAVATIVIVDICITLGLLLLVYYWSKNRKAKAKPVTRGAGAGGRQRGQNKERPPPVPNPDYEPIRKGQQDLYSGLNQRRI
T3 sequence (Q95LI8 22-171, chain 2 of 3): as the sequence (P04234 22-171, chain 2 of 3) above, with I5V, N15K, I20V, S32T, D33N, I34N, T64A, S74N, V83L, H141R counted along it
T3 sequence (Q95LI7 23-181, chain 3 of 3): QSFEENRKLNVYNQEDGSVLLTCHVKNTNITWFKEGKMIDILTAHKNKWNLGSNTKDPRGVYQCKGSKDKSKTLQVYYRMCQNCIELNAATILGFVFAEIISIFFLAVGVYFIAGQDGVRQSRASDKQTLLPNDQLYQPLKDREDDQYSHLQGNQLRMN
T1 sequence (Q95LI5 22-198, chain 1 of 3): as the sequence (Q95LI5 22-198, chain 1 of 3) above
T1 sequence (Q95LI8 22-171, chain 2 of 3): as the sequence (P04234 22-171, chain 2 of 3) above, with I5V, N15K, I20V, S32T, D33N, I34N, T64A, S74N, V83L, H141R counted along it
T1 sequence (Q95LI7 23-181, chain 3 of 3): as the sequence (Q95LI7 23-181, chain 3 of 3) above

Row | Binder | binding result [1] | Human primary T Cell Binding (FOI) [2] [FOI] | Jurkat Cell Binding (FOI) [2] [FOI] | binding result [3]
1 | B1 | no binding (tested: FOI >=10 = positive) |  |  | 
2 | B2 | no binding (tested: FOI >=10 = positive) | 96.9 | 107 | 
3 | B3 | no binding (tested: FOI >=10 = positive) | 191 | 178 | 
4 | B4 | no binding (tested: FOI >=10 = positive) | 102 | 99.8 | 
5 | B5 | no binding (tested: FOI >=10 = positive) | 199 | 184 | 
6 | B6 | no binding (tested: FOI >=10 = positive) | 158 | 165 | 
7 | B7 | no binding (tested: FOI >=10 = positive) | 173 | 161 | 
8 | B8 | no binding (tested: FOI >=10 = positive) |  |  | 
9 | B9 | no binding (tested: FOI >=10 = positive) | 98.5 | 111 | 
10 | B10 | no binding (tested: FOI >=10 = positive) |  |  | 
11 | B11 | no binding (tested: FOI >=10 = positive) | 96.2 | 111 | 
12 | B12 | no binding (tested: FOI >=10 = positive) | 34.8 | 44.6 | 
13 | B13 | no binding (tested: FOI >=10 = positive) | 104 | 151 | 
14 | B14 | no binding (tested: FOI >=10 = positive) | 185 | 181 | 
15 | B15 |  |  |  | no binding (tested: FOI <10 (FOI >=10 = positive); 25 nM)
16 | B16 |  |  |  | no binding (tested: FOI <10 (FOI >=10 = positive); 25 nM)
17 | B17 | no binding (tested: FOI >=10 = positive) | 136 | 112 | 
18 | B18 | no binding (tested: FOI >=10 = positive) | 110 | 131 | 
19 | B19 | no binding (tested: FOI >=10 = positive) | 86.4 | 92.5 | 
20 | B20 |  |  |  | no binding (tested: FOI <10 (FOI >=10 = positive); 25 nM)
21 | B21 |  |  |  | no binding (tested: FOI <10 (FOI >=10 = positive); 25 nM)
